{"source": "paper PMC8326396", "about": "“Label-free Electrochemical Impedance Spectroscopy Aptasensor for Ultrasensitive Detection of Lung Cancer Biomarker Carcinoembryonic Antigen”", "target": "carcinoembryonic antigen (CEA) (UniProt P06731 35-685)", "sequence (P06731 35-685)": "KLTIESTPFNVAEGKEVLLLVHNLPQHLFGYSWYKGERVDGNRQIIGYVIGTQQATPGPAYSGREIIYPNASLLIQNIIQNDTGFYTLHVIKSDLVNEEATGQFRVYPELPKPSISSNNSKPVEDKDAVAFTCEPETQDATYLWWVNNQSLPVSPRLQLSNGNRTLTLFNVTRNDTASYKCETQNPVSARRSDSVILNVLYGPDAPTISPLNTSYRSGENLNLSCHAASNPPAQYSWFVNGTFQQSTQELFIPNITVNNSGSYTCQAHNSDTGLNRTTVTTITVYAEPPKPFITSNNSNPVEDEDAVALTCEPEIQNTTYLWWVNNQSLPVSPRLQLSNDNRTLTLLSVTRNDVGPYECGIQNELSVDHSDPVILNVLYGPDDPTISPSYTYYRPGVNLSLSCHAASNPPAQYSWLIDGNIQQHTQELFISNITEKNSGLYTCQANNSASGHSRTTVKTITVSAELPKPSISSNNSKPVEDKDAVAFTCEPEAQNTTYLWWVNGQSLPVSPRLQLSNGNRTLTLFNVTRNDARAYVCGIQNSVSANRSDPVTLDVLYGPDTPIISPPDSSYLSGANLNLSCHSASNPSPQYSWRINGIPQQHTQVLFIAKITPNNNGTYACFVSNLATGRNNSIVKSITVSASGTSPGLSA", "experiment": "electrochemical impedance spectroscopy; CEA 0.2-15.0 ng/ml linear range; LOD 0.085 ng/ml (not a Kd); CEA incubated on electrode 1 h at 37 C (70 min found optimal), wash with 0.01 M [Fe(CN)6] PBS pH 7.4; EIS in 5 mM [Fe(CN)6]3-/4-, 0.1 M PBS pH 7.0, KCl (0.1 M or 1 M, stated inconsistently)", "details": "protein: commercial"}
{"binder": "ATACCAGCTTATTCAATT (ssDNA, 5'-SH (thiol))", "note": "[CEA aptamer (CEA-A)]", "values": [{"measurement": "binding result", "result": "binds"}]}
